Data taken from patent US20210070886.

Columns and labels:
[1] = biological target: fluorescein-modified BSA encapsulated in octahedra-shaped DNA origami (OCs) (UniProt P02769)
[2] = biological target: fluorescein labeled bovine serum albumin (BSA), free in solution (UniProt P02769)
Chain of fluorescein labeled bovine serum albumin (BSA), free in solution (P02769 25-607): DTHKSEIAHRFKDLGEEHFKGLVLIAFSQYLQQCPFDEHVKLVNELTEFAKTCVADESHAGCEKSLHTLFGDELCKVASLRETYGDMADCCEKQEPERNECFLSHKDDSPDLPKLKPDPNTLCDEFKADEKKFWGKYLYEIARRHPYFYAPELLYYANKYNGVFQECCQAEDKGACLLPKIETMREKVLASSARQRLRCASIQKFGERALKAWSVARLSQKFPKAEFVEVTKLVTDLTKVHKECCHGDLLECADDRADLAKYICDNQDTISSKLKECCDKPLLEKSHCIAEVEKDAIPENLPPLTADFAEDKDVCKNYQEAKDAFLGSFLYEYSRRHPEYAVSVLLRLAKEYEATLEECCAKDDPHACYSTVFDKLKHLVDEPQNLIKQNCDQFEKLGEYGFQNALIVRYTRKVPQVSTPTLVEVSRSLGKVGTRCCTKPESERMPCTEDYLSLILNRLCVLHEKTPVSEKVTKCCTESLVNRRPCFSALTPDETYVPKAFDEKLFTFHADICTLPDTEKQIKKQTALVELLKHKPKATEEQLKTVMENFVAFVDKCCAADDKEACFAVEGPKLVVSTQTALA

Chain of trypsin (P00760 24-246): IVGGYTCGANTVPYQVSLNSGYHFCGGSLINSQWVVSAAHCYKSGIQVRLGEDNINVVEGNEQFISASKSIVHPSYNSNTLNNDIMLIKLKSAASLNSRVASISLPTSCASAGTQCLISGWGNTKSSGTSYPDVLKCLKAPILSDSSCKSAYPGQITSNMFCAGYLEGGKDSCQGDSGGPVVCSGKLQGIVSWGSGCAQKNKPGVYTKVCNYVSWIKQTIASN
Chain of fluorescein-modified BSA encapsulated in octahedra-shaped DNA origami (OCs) (P02769 25-607): as the sequence (P02769 25-607) above

## trypsin
[1]
  fluorescence enhancement on tryptic digestion, BSA encapsulated inside PE2-coated OCs: further reduced to ˜14% by PE2 coating on the OC surface
  fluorescence enhancement on tryptic digestion, BSA encapsulated inside bare OCs: reduced to ˜40% by protein encapsulation inside the OCs
[2]
  fluorescence enhancement of fluorescein labeled BSA in solution on tryptic digestion: an 85% increase in the fluorescence intensity
